Consider four molecules from publication PMC1361355 (PLoS Pathogens, 2006).

One may read the koff as the rate constant with which the complex falls apart. High values mean a short-lived complex, low ones a long-lived complex. What is called Kd is the free concentration of one partner at which half of the binding sites on the other are occupied at equilibrium, for simple one-to-one binding. High values mean a looser complex, low ones a tighter complex.

The target of experiment [1] is T1, NiV-G-Fc, a fusion construct between the ectodomain of NiV-G and the Fc region of human IgG1 (Nipah virus, UniProt Q9IH62 71-602).
T1 sequence: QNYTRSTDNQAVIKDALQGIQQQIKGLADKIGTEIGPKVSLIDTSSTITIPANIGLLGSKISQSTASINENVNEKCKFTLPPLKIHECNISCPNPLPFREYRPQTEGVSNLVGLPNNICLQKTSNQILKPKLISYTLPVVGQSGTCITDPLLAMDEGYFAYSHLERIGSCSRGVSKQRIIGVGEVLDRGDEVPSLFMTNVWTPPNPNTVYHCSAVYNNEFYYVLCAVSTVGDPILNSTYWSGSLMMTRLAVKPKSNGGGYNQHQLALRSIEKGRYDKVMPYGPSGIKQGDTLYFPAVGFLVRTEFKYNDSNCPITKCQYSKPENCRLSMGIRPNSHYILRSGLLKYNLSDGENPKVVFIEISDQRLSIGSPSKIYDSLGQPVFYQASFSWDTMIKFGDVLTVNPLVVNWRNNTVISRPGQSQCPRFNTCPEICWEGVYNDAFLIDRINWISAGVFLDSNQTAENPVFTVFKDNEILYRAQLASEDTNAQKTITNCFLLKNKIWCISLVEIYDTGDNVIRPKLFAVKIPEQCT
Kind of experiment: SPR; BIAcore 3000; […]; 1:1 Langmuir model. The following applies: both partners purified.

Experiment [2] has as its target T2, EphB4-Fc (UniProt P54760 16-539).
T2 sequence (looked up): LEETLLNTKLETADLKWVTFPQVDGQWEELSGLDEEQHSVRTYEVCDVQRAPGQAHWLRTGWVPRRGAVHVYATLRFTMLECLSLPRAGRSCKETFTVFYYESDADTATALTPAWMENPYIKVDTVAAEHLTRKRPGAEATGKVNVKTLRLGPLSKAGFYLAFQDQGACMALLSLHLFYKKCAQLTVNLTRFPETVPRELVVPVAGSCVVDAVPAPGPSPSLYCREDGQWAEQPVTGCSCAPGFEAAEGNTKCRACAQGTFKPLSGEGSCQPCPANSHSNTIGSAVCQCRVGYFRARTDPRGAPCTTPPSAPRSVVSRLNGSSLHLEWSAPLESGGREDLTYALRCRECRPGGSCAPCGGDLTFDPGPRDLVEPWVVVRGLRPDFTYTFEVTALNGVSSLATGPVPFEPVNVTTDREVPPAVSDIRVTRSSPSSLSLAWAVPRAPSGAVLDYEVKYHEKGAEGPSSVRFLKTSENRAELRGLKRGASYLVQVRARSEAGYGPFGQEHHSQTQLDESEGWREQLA
Kind of experiment: SPR; unpublished data: BIAcore control, EphB4-Fc binding to ephrinB2-Fc; who was immobilised is not stated. The following applies: both partners purified. On the technique in general: SPR reads the build-up and loss of mass on a sensor chip optically.

Experiment [3] addresses T1, NiV-G-Fc, a fusion construct between …. The experiment can be described thus: flow cytometry on cells. The following applies: one partner purified.

B1: ephrinB2-Fc (soluble Fc-fusion ephrin protein, purchased) (Fc fusion)
chain: RSIVLEPIYWNSSNSKFLPGQGLVLYPQIGDKLDIICPKVDSKTVGQYEYYKVYMVDKDQADRCTIKKENTPLLNCARPDQDVKFTIKFQEFSPNLWGLEFQKNKDYYIISTSNGSLEGLDNQEGGVCQTRAMKILMKVGQDASSAGSARNHGPTRRPELEAGTNGRSSTTSPFVKPNPGSSTDGNSAGHSGNNLLGSEVA
Molecule B1 returned a dissociation rate constant (koff) in experiment [1] of 0.000106 s⁻¹.

B2: ephrinB2-Fc (soluble Fc-fusion ephrin protein, purchased) (Fc fusion)
chain: B1 chain
modifications: Ectodomain only. The human IgG1 Fc carrier, which makes the fusion a disulfide-linked dimer, is left out. Species is inferred: the R&D Systems ephrin-B2-Fc of that period was recalled as the mouse …
In experiment [2], B2 registered a Kd of 0.37 nM.

B3: human ephrinB3 stably expressed on CHO-pgsA745 cells (CHO-B3) (natural protein, UniProt Q15768 28-340, looked up)
chain: LSLEPVYWNSANKRFQAEGGYVLYPQIGDRLDLLCPRARPPGPHSSPNYEFYKLYLVGGAQGRRCEAPPAPNLLLTCDRPDLDLRFTIKFQEYSPNLWGHEFRSHHDYYIIATSDGTREGLESLQGGVCLTRGMKVLLRVGQSPRGGAVPRKPVSEMPMERDRGAAHSLEPGKENLPGDPTSNATSRGAEGPLPPPSMPAVAGAAGGLALLLLGVAGAGGAMCWRRRRAKPSESRHPGPGSFGRGGSLGLGGGGGMGPREAEPGELGIALRGGGAADPPFCPHYEKVSGDYGHPVYIVQDGPPQSPPNIYYKV
notes: also called cell surface ephrinB3
Turning to B3, in experiment [3], the equilibrium dissociation constant (Kd) is 0.58 nM.

B4: ephrinB3-Fc (soluble Fc-fusion ephrin protein, purchased) (Fc fusion)
chain: LSLEPVYWNSANKRFQAEGGYVLYPQIGDRLDLLCPRARPPGPHSSPNYEFYKLYLVGGAQGRRCEAPPAPNLLLTCDRPDLDLRFTIKFQEYSPNLWGHEFRSHHDYYIIATSDGTREGLESLQGGVCLTRGMKVLLRVGQSPRGGAVPRKPVSEMPMERDRGAAHSLEPGKENLPGDPTSNATSRGAEGPLPPPSMP
notes: source: bought: R & D Systems
In turn, B4 had a dissociation rate constant (koff) in experiment [1] of 0.00194 s⁻¹.
